Paper PMC8997467

Key:
Conditions in all cases: glycan lost; control: wild type
[1] = cell surface biotinylation, streptavidin pulldown, HeLa
[2] = anti-FLAG surface immunofluorescence, non-permeabilised HeLa
[3] = co-immunostaining with ER marker HA-PDIA4

In the case of “Neuronal growth regulator 1 (NEGR1): 1MT (N307Q)”, the “localisation_or_trafficking, percent_of_wt” value [1] is reported as “no change”.
In the case of “Neuronal growth regulator 1 (NEGR1): N73Q”, the “localisation_or_trafficking, percent_of_wt” value [2] is reported as “no change”.
For “Neuronal growth regulator 1 (NEGR1): N73Q/N155Q”, the localisation_or_trafficking [3] was “changes”, the “localisation_or_trafficking, percent_of_wt” value [1] was “abolishes” and the “localisation_or_trafficking, percent_of_wt” value [2] was “abolishes”.
In the case of “Neuronal growth regulator 1 (NEGR1): N155Q”, the “localisation_or_trafficking, percent_of_wt” value [2] is reported as “no change”.
In the case of “Neuronal growth regulator 1 (NEGR1): N275Q”, the “localisation_or_trafficking, percent_of_wt” value [2] is reported as “no change”.
For “Neuronal growth regulator 1 (NEGR1): N286Q”, the “localisation_or_trafficking, percent_of_wt” value [2] was “no change”.
With “Neuronal growth regulator 1 (NEGR1): N294Q” the “localisation_or_trafficking, percent_of_wt” value [2] was “no change”.
For “Neuronal growth regulator 1 (NEGR1): N307Q”, the “localisation_or_trafficking, percent_of_wt” value [2] was “no change”.
